From patent US8357518B2, “Thermostable enzymes for the hydrolysis of mannan-containing polysaccharides” (The Board of Trustees of the University of Illinois, priority 2010, dated 2013)

Assays:
Experiment in all cases: purified protein, by the assay type
Conditions in all cases: other: Man5B 3 nM, oligosaccharide 30 μM, citrate buffer 50 mM, pH 5.5, 5 min, triplicate
[1] = substrate: OC[C@H]1O[C@@H](O[C@H]2[C@H](O)[C@@H](O)[C@H](O[C@H]3[C@H](O)[C@@H](O)[C@H](O[C@H]4[C@H](O)[C@@H](O)C(O)O[C@@H]4CO)O[C@@H]3CO)O[C@@H]2CO)[C@H](O)[C@@H](O)[C@@H]1O
[2] = substrate: OC[C@H]1O[C@@H](O[C@H]2[C@H](O)[C@@H](O)[C@H](O[C@H]3[C@H](O)[C@@H](O)[C@H](O[C@H]4[C@H](O)[C@@H](O)[C@H](O[C@H]5[C@H](O)[C@@H](O)[C@H](O[C@H]6[C@H](O)[C@@H](O)C(O)O[C@@H]6CO)O[C@@H]5CO)O[C@@H]4CO)O[C@@H]3CO)O[C@@H]2CO)[C@H](O)[C@@H](O)[C@@H]1O
[3] = substrate: OC[C@H]1O[C@@H](O[C@H]2[C@H](O)[C@H](O)[C@H](O[C@H]3[C@H](O)[C@H](O)C(O)O[C@@H]3CO)O[C@@H]2CO)[C@@H](O)[C@@H](O)[C@@H]1O
[4] = substrate: OC[C@H]1O[C@@H](O[C@H]2[C@H](O)[C@H](O)[C@H](O[C@H]3[C@H](O)[C@H](O)[C@H](O[C@H]4[C@H](O)[C@H](O)[C@H](O[C@H]5[C@H](O)[C@H](O)[C@H](O[C@H]6[C@H](O)[C@H](O)C(O)O[C@@H]6CO)O[C@@H]5CO)O[C@@H]4CO)O[C@@H]3CO)O[C@@H]2CO)[C@@H](O)[C@@H](O)[C@@H]1O

B1: Caldanaerobius polysaccharolyticus endo-β-mannanase Man5B, wild type, SEQ ID NO: 31 (Caldanaerobius polysaccharolyticus) (protein)
chain: MKKYGFNFQWMYVWEEGREPEPPDKKALDFLAETGFNFVRIPVDYRFWTRNFDYFNPDKKVFEYIDLYLRECSARNIHMCLNLHRAPGYCINRNDIERDNLWLDKRAQDGFVYQWELFAKRYKGVSSKFLSFDLVNEPPNIGQYGLTRENHASLIIRTVEAIRKIDPDREIVIDGLGGGNIAMPELAHLGVVHSGRGYQPMALTHYQASWWDGHKGLPEPYYPDLLWQGKVWNKDTLREYYKPWRDLQQKGVNVHIGEFGCFNKTSNDVAIRWFEDVLSLYKEFEWGYSLWNFKGPFGIVEHGRPGAKYEYYRGFKVDRELLDLLVENRV
[1]
  kcat/Km: 1400 ± 200 M⁻¹ s⁻¹
[2]
  kcat/Km: 43000 ± 3000 M⁻¹ s⁻¹
[3]
  kcat/Km: 270 ± 50 M⁻¹ s⁻¹
[4]
  kcat/Km: (2.7 ± 0.7) × 10^2 mM^−1 s^−1
